The values below come from patent US20210388087A1 (Chugai, published 2021).

B1: H183/L072 VL M27eR (antibody, name in Kabat numbering, V domains shown)
VH: QVQLVESGGGLVQPGRSLRLSCAASGFTFSNAWMHWVRQAPGKGLEWVAQIKDKGNAYAAYYAPSVKGRFTISRDDSKNSIYLQMNSLKTEDTAVYYCHYVHYASASTVLPAFGVDAWGQGTTVTVSS
VL: DIVMTQSPLSLPVTPGEPASISCQASQELVHRNRNTYLHWYQQKPGQAPRLLIYKVSNRFPGVPDRFSGSGSGTDFTLKISRVEAEDVGVYYCAQGTSVPFTFGQGTKLEIK
notes: Dual-Ig
B2: H183/L072 VL N28T (antibody, name in Kabat numbering, V domains shown)
VH: QVQLVESGGGLVQPGRSLRLSCAASGFTFSNAWMHWVRQAPGKGLEWVAQIKDKGNAYAAYYAPSVKGRFTISRDDSKNSIYLQMNSLKTEDTAVYYCHYVHYASASTVLPAFGVDAWGQGTTVTVSS
VL: DIVMTQSPLSLPVTPGEPASISCQASQELVHMTRNTYLHWYQQKPGQAPRLLIYKVSNRFPGVPDRFSGSGSGTDFTLKISRVEAEDVGVYYCAQGTSVPFTFGQGTKLEIK
notes: Dual-Ig
B3: H183/L072 VL M27eV (antibody, name in Kabat numbering, V domains shown)
VH: QVQLVESGGGLVQPGRSLRLSCAASGFTFSNAWMHWVRQAPGKGLEWVAQIKDKGNAYAAYYAPSVKGRFTISRDDSKNSIYLQMNSLKTEDTAVYYCHYVHYASASTVLPAFGVDAWGQGTTVTVSS
VL: DIVMTQSPLSLPVTPGEPASISCQASQELVHVNRNTYLHWYQQKPGQAPRLLIYKVSNRFPGVPDRFSGSGSGTDFTLKISRVEAEDVGVYYCAQGTSVPFTFGQGTKLEIK
notes: Dual-Ig
B4: H183/L072 VL N28G (antibody, name in Kabat numbering, V domains shown)
VH: QVQLVESGGGLVQPGRSLRLSCAASGFTFSNAWMHWVRQAPGKGLEWVAQIKDKGNAYAAYYAPSVKGRFTISRDDSKNSIYLQMNSLKTEDTAVYYCHYVHYASASTVLPAFGVDAWGQGTTVTVSS
VL: DIVMTQSPLSLPVTPGEPASISCQASQELVHMGRNTYLHWYQQKPGQAPRLLIYKVSNRFPGVPDRFSGSGSGTDFTLKISRVEAEDVGVYYCAQGTSVPFTFGQGTKLEIK
notes: Dual-Ig
B5: H183/L072 VL M27eY (antibody, name in Kabat numbering, V domains shown)
VH: QVQLVESGGGLVQPGRSLRLSCAASGFTFSNAWMHWVRQAPGKGLEWVAQIKDKGNAYAAYYAPSVKGRFTISRDDSKNSIYLQMNSLKTEDTAVYYCHYVHYASASTVLPAFGVDAWGQGTTVTVSS
VL: DIVMTQSPLSLPVTPGEPASISCQASQELVHYNRNTYLHWYQQKPGQAPRLLIYKVSNRFPGVPDRFSGSGSGTDFTLKISRVEAEDVGVYYCAQGTSVPFTFGQGTKLEIK
notes: Dual-Ig
B6: H183/L072 VL N28L (antibody, name in Kabat numbering, V domains shown)
VH: QVQLVESGGGLVQPGRSLRLSCAASGFTFSNAWMHWVRQAPGKGLEWVAQIKDKGNAYAAYYAPSVKGRFTISRDDSKNSIYLQMNSLKTEDTAVYYCHYVHYASASTVLPAFGVDAWGQGTTVTVSS
VL: DIVMTQSPLSLPVTPGEPASISCQASQELVHMLRNTYLHWYQQKPGQAPRLLIYKVSNRFPGVPDRFSGSGSGTDFTLKISRVEAEDVGVYYCAQGTSVPFTFGQGTKLEIK
notes: Dual-Ig
B7: H183/L072 VL N28K (antibody, name in Kabat numbering, V domains shown)
VH: QVQLVESGGGLVQPGRSLRLSCAASGFTFSNAWMHWVRQAPGKGLEWVAQIKDKGNAYAAYYAPSVKGRFTISRDDSKNSIYLQMNSLKTEDTAVYYCHYVHYASASTVLPAFGVDAWGQGTTVTVSS
VL: DIVMTQSPLSLPVTPGEPASISCQASQELVHMKRNTYLHWYQQKPGQAPRLLIYKVSNRFPGVPDRFSGSGSGTDFTLKISRVEAEDVGVYYCAQGTSVPFTFGQGTKLEIK
notes: Dual-Ig
B8: H183/L072 VL M27eT (antibody, name in Kabat numbering, V domains shown)
VH: QVQLVESGGGLVQPGRSLRLSCAASGFTFSNAWMHWVRQAPGKGLEWVAQIKDKGNAYAAYYAPSVKGRFTISRDDSKNSIYLQMNSLKTEDTAVYYCHYVHYASASTVLPAFGVDAWGQGTTVTVSS
VL: DIVMTQSPLSLPVTPGEPASISCQASQELVHTNRNTYLHWYQQKPGQAPRLLIYKVSNRFPGVPDRFSGSGSGTDFTLKISRVEAEDVGVYYCAQGTSVPFTFGQGTKLEIK
notes: Dual-Ig
B9: H183/L072 VL N28P (antibody, name in Kabat numbering, V domains shown)
VH: QVQLVESGGGLVQPGRSLRLSCAASGFTFSNAWMHWVRQAPGKGLEWVAQIKDKGNAYAAYYAPSVKGRFTISRDDSKNSIYLQMNSLKTEDTAVYYCHYVHYASASTVLPAFGVDAWGQGTTVTVSS
VL: DIVMTQSPLSLPVTPGEPASISCQASQELVHMPRNTYLHWYQQKPGQAPRLLIYKVSNRFPGVPDRFSGSGSGTDFTLKISRVEAEDVGVYYCAQGTSVPFTFGQGTKLEIK
notes: Dual-Ig
B10: H183/L072 VL M27eS (antibody, name in Kabat numbering, V domains shown)
VH: QVQLVESGGGLVQPGRSLRLSCAASGFTFSNAWMHWVRQAPGKGLEWVAQIKDKGNAYAAYYAPSVKGRFTISRDDSKNSIYLQMNSLKTEDTAVYYCHYVHYASASTVLPAFGVDAWGQGTTVTVSS
VL: DIVMTQSPLSLPVTPGEPASISCQASQELVHSNRNTYLHWYQQKPGQAPRLLIYKVSNRFPGVPDRFSGSGSGTDFTLKISRVEAEDVGVYYCAQGTSVPFTFGQGTKLEIK
notes: Dual-Ig
B11: H183/L072 VL N28I (antibody, name in Kabat numbering, V domains shown)
VH: QVQLVESGGGLVQPGRSLRLSCAASGFTFSNAWMHWVRQAPGKGLEWVAQIKDKGNAYAAYYAPSVKGRFTISRDDSKNSIYLQMNSLKTEDTAVYYCHYVHYASASTVLPAFGVDAWGQGTTVTVSS
VL: DIVMTQSPLSLPVTPGEPASISCQASQELVHMIRNTYLHWYQQKPGQAPRLLIYKVSNRFPGVPDRFSGSGSGTDFTLKISRVEAEDVGVYYCAQGTSVPFTFGQGTKLEIK
notes: Dual-Ig
B12: H183/L072 VL N28E (antibody, name in Kabat numbering, V domains shown)
VH: QVQLVESGGGLVQPGRSLRLSCAASGFTFSNAWMHWVRQAPGKGLEWVAQIKDKGNAYAAYYAPSVKGRFTISRDDSKNSIYLQMNSLKTEDTAVYYCHYVHYASASTVLPAFGVDAWGQGTTVTVSS
VL: DIVMTQSPLSLPVTPGEPASISCQASQELVHMERNTYLHWYQQKPGQAPRLLIYKVSNRFPGVPDRFSGSGSGTDFTLKISRVEAEDVGVYYCAQGTSVPFTFGQGTKLEIK
notes: Dual-Ig
B13: H183/L072 VL N28Q (antibody, name in Kabat numbering, V domains shown)
VH: QVQLVESGGGLVQPGRSLRLSCAASGFTFSNAWMHWVRQAPGKGLEWVAQIKDKGNAYAAYYAPSVKGRFTISRDDSKNSIYLQMNSLKTEDTAVYYCHYVHYASASTVLPAFGVDAWGQGTTVTVSS
VL: DIVMTQSPLSLPVTPGEPASISCQASQELVHMQRNTYLHWYQQKPGQAPRLLIYKVSNRFPGVPDRFSGSGSGTDFTLKISRVEAEDVGVYYCAQGTSVPFTFGQGTKLEIK
notes: Dual-Ig
B14: H183/L072 VL N28S (antibody, name in Kabat numbering, V domains shown)
VH: QVQLVESGGGLVQPGRSLRLSCAASGFTFSNAWMHWVRQAPGKGLEWVAQIKDKGNAYAAYYAPSVKGRFTISRDDSKNSIYLQMNSLKTEDTAVYYCHYVHYASASTVLPAFGVDAWGQGTTVTVSS
VL: DIVMTQSPLSLPVTPGEPASISCQASQELVHMSRNTYLHWYQQKPGQAPRLLIYKVSNRFPGVPDRFSGSGSGTDFTLKISRVEAEDVGVYYCAQGTSVPFTFGQGTKLEIK
notes: Dual-Ig
B15: H183/L072 VL N28F (antibody, name in Kabat numbering, V domains shown)
VH: QVQLVESGGGLVQPGRSLRLSCAASGFTFSNAWMHWVRQAPGKGLEWVAQIKDKGNAYAAYYAPSVKGRFTISRDDSKNSIYLQMNSLKTEDTAVYYCHYVHYASASTVLPAFGVDAWGQGTTVTVSS
VL: DIVMTQSPLSLPVTPGEPASISCQASQELVHMFRNTYLHWYQQKPGQAPRLLIYKVSNRFPGVPDRFSGSGSGTDFTLKISRVEAEDVGVYYCAQGTSVPFTFGQGTKLEIK
notes: Dual-Ig
B16: H183/L072 VL N28R (antibody, name in Kabat numbering, V domains shown)
VH: QVQLVESGGGLVQPGRSLRLSCAASGFTFSNAWMHWVRQAPGKGLEWVAQIKDKGNAYAAYYAPSVKGRFTISRDDSKNSIYLQMNSLKTEDTAVYYCHYVHYASASTVLPAFGVDAWGQGTTVTVSS
VL: DIVMTQSPLSLPVTPGEPASISCQASQELVHMRRNTYLHWYQQKPGQAPRLLIYKVSNRFPGVPDRFSGSGSGTDFTLKISRVEAEDVGVYYCAQGTSVPFTFGQGTKLEIK
notes: Dual-Ig
B17: H183/L072 VL N28H (antibody, name in Kabat numbering, V domains shown)
VH: QVQLVESGGGLVQPGRSLRLSCAASGFTFSNAWMHWVRQAPGKGLEWVAQIKDKGNAYAAYYAPSVKGRFTISRDDSKNSIYLQMNSLKTEDTAVYYCHYVHYASASTVLPAFGVDAWGQGTTVTVSS
VL: DIVMTQSPLSLPVTPGEPASISCQASQELVHMHRNTYLHWYQQKPGQAPRLLIYKVSNRFPGVPDRFSGSGSGTDFTLKISRVEAEDVGVYYCAQGTSVPFTFGQGTKLEIK
notes: Dual-Ig
B18: H183/L072 VL N28A (antibody, name in Kabat numbering, V domains shown)
VH: QVQLVESGGGLVQPGRSLRLSCAASGFTFSNAWMHWVRQAPGKGLEWVAQIKDKGNAYAAYYAPSVKGRFTISRDDSKNSIYLQMNSLKTEDTAVYYCHYVHYASASTVLPAFGVDAWGQGTTVTVSS
VL: DIVMTQSPLSLPVTPGEPASISCQASQELVHMARNTYLHWYQQKPGQAPRLLIYKVSNRFPGVPDRFSGSGSGTDFTLKISRVEAEDVGVYYCAQGTSVPFTFGQGTKLEIK
notes: Dual-Ig
B19: H183/L072 VL N28M (antibody, name in Kabat numbering, V domains shown)
VH: QVQLVESGGGLVQPGRSLRLSCAASGFTFSNAWMHWVRQAPGKGLEWVAQIKDKGNAYAAYYAPSVKGRFTISRDDSKNSIYLQMNSLKTEDTAVYYCHYVHYASASTVLPAFGVDAWGQGTTVTVSS
VL: DIVMTQSPLSLPVTPGEPASISCQASQELVHMMRNTYLHWYQQKPGQAPRLLIYKVSNRFPGVPDRFSGSGSGTDFTLKISRVEAEDVGVYYCAQGTSVPFTFGQGTKLEIK
notes: Dual-Ig
B20: H183/L072 VL M27eW (antibody, name in Kabat numbering, V domains shown)
VH: QVQLVESGGGLVQPGRSLRLSCAASGFTFSNAWMHWVRQAPGKGLEWVAQIKDKGNAYAAYYAPSVKGRFTISRDDSKNSIYLQMNSLKTEDTAVYYCHYVHYASASTVLPAFGVDAWGQGTTVTVSS
VL: DIVMTQSPLSLPVTPGEPASISCQASQELVHWNRNTYLHWYQQKPGQAPRLLIYKVSNRFPGVPDRFSGSGSGTDFTLKISRVEAEDVGVYYCAQGTSVPFTFGQGTKLEIK
notes: Dual-Ig

The target of the assay is T1, Human CD137 ECD (human).
T1 construct: entry includes C-terminal His-tag and biotin acceptor peptide; also called human CD137 extracellular domain; 4-1BB
T1 sequence (chain, as listed by the source limits assumed): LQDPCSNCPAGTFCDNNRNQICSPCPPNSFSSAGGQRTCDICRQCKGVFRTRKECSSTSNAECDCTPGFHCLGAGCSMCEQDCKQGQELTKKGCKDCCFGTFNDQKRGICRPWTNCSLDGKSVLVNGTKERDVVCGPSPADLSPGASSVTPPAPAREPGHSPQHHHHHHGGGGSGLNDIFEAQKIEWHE
Kind of assay: Biacore SPR, vs parent H183/L072.
With B1, the “fold change of affinity” value was determined as 1 fold.

Take B2: the “fold change of affinity” value was determined as 0.5 fold.

As for B3, the “fold change of affinity” value came to 0.9 fold.

B4: the “fold change of affinity” value came out at 0.5 fold.

For B5, the “fold change of affinity” value was found to be 0.7 fold.

With B6, the “fold change of affinity” value worked out at 0.3 fold.

For the molecule B7, the “fold change of affinity” value amounted to 0.3 fold.

For the molecule B8, the “fold change of affinity” value came to 0.9 fold.

Consider B9, for which the “fold change of affinity” value was found to be 0.4 fold.

For B10, the “fold change of affinity” value is 0.9 fold.

Turning to B11, the “fold change of affinity” value turned out to be 0.3 fold.

B12: the “fold change of affinity” value stood at 0.2 fold.

For B13, the “fold change of affinity” value came out at 0.4 fold.

For the molecule B14, the “fold change of affinity” value was 0.5 fold.

In the case of B15, the “fold change of affinity” value came to 0.4 fold.

Take B16: the “fold change of affinity” value worked out at 0.4 fold.

As for B17, the “fold change of affinity” value amounted to 0.4 fold.

Consider B18, for which the “fold change of affinity” value was 0.4 fold.

For B19, the “fold change of affinity” value is 0.4 fold.

On to B20, for which the “fold change of affinity” value was determined as 0.7 fold.
